Tests used:
[1] = system: MM1s (multiple myeloma) cell genome; experiment: ctDNA coculture with MM1s cells, whole genome sequencing: genomic insertion sites, transposons at insertion points and SNVs (multiple myeloma); format: cell-based, human; conditions: for Gene: gene at identified genomic insertion site; for Gene / Location / Chr position / No. SNP: multiple myeloma; for Location / Chr position: identified genomic insertion site; for Location: chromosome; for No. SNP: number of single nucleotide variants (SNVs or SNPs) identified
Procedure: (§1) The integration of ctDNAs into the host cell genome was evaluated. ctDNA was extracted from patient plasma, cultured for 24 hours with cells of a matching cancer cell type or non-matching cancer cell type, and whole genome sequencing was performed. The cell lines used were MM1s (multiple myeloma, MM) and MIA (pancreatic cancer, PC).
Single nucleotide variants (SNVs) unique to the ctDNA that were found in the host cell genome under matching coculture conditions were identified.
The sequence data was used to reconstruct genomic contigs for each experimental condition by de novo assembly. […] Coculture contigs carrying a ctDNA insertion were identified using NucDiff analysis. BLAST alignment analysis further validated the gain of ctDNA fragments in coculture conditions and identified the transition points of ctDNA insertion (FIGS. 3A-3C). […] The remaining 20% inserted into a chromosomal location distinct from their site of origin.
(§2) Experiments were designed to identify the presence of transposons in ctDNA fragments. To map ctDNA genomic junctions more precisely, a PACBIO probe was ligated to multiple myeloma and pancreatic cancer ctDNA samples to label their 5′ and 3′ ends. Whole-genome sequencing of DNA from cells with ctDNA genomic integration was done using the Illumina platform. De novo assembly was performed on the sequencing output. ctDNA contigs containing PACBIO adaptor were then matched to those contigs containing inserted ctDNA sequences identified in the coculture experiments. Transposable element on ctDNA sequences at the insertion points (<100 nucleotides from transition point between cell and ctDNA) were detected and classified using RepeatMaster.
(§3) A search was conducted for transposons that preferentially target cells of matching tumor types. The lists of transposons identified at the ctDNA insertion point in matching and mismatched coculture conditions were compared (e.g., MM ctDNA with MM cells or PC cells). Transposons were selected that were uniquely or preferentially inserted in the matching conditions.
In multiple myeloma, AluSp, MER11, MER11C, AluJb, and L2a, among other subfamilies of retrotransposons were identified at the MM ctDNA insertion sites (FIG. 5B and TABLE 7).
(§4) Whole-genome sequencing and Whole exon sequencing: ctDNA was extracted from 10 MM and 10 PC patients. DNA from CD138 (+) cells and from cell lines used in in vitro experiments (MM1s and MIA) was extracted using Blood & Cell Culture DNA Mini Kit (Quiagen, MD). DNA from […] paraffin embedded pancreatic tumors was obtained using QIAamp DNA FFPE Tissue Kit Print (Qiagen, MD).
(§5) After extraction, ctDNA was ligated to the PACBIO adaptor ([…]) using the ABM DNA Library Prep Kit for Illumina Sequencing (Applied Biological Materials Inc. Canada). PACBio-labeled ctDNA and regular ctDNA were subjected to standard methods for library preparation and sequencing using Illumina and Agilent protocols, respectively. Applied Biological Materials Inc. prepared the libraries and performed whole-exon and -genome sequencing. The average target coverage was 50×.
(§6) Identification of transposable elements and its nucleotide variants: To determine the locations of transposable-like regions in contigs, sequences were analyzed and transposable elements (TEs) were identified and classified using RepeatMasker version 4.1.0 and the Dfam database (release 3.1) of repetitive DNA families was used as a reference for identifying repeats in ctDNA contig sequences that were part of qualifying structural events. For each repeat sequence identified by RepeatMasker, the overall frequency of the specific repeat (e.g., for AluSp or L1) and their parent class (e.g., SINE) was computed.
Once the TE elements were identified, hit repeats/TE sequences, unique contigs for all samples, and insertion sequence were aligned with MAFFT software version. […]

[2] = system: MIA (pancreatic cancer) cell genome; experiment: ctDNA coculture with MIA cells, whole genome sequencing: genomic insertion sites, transposons at insertion points and SNVs (pancreatic cancer); format: cell-based, human; conditions: TABLE 8, pancreatic cancer co-culture
Procedure: as §1
The sequence data was used to reconstruct genomic contigs for each experimental condition by de novo assembly. […] Coculture contigs carrying a ctDNA insertion were identified using NucDiff analysis.
as §2, §3, §4
as §5, with “sequencing.” for “sequencing. The average target coverage was 50×.”
as §6
Once the TE elements were identified, hit repeats/TE sequences, unique contigs for all samples, and insertion sequence were aligned with MAFFT software version. Mutations in TE sequences were identified by comparison of nucleotides at each position in the multiple sequence alignment with the “Biostrings” R package (version 4.1). A position was considered to contain mutation if the substitution was present in contigs of all samples.

Molecule | Gene [1] | Location [1] | Chr position [1] | No. SNP [1] | also measured
L1MB3 | – | – | – | – | blast orientation ([1]; TABLE 7, multiple myeloma co-culture, BLAST alignment orientation): Plus/Plus; blast chr ([1]; TABLE 7, multiple myeloma co-culture, chromosome with the longest result for BLAST analysis of the full contig): chr2; Distance from insertion ([1]; TABLE 7, multiple myeloma co-culture, distance between insertion and the transposon (0 if they overlap)): −68; Location relative to insertion ([1]; TABLE 7, multiple myeloma co-culture, location of the transposon relative to the insertion on the contig): right
MLT1J2 (nucleic acid, listed as Homo sapiens) DNA: TGTGTTAGTCAGGATAGGCTAACCTCTGTAACACACAACCCCAATTTTTCAGTGGCTCAGAACAATAGGAGTTTCTTTCTTACTCATGTAAAGTCCAGGTGTGGCAGAAACTTGCGGGGGAGAAAGTCTACTCCACAGCATCACTCAGGGACCCAGGCTCCTGCCTTACGGTGGTTCCGCCATTTTCCAGGGCCTCGGAGTCCTCCATCCCATCTCCTCCATTCAGCTGGTGGATGTGGGAGGAGAGCGTGTATGAAAGACCACACAGAAGCTTTTTTTGGGCCAGGCTTTGAGACGGCGCACATCAGTTTCGCTCTTGTTGCCCAGGCTGGAGTGCAATGGCGCAATCTCGGCTCACCGCAAAAGACACTGGGAAATTTGGTCTGGCCATGTGTCTAGGAAGCAGAGGAGATGGGGTTTCATAAACTCCTGAACTCTCTCTACCACG | – | – | – | – | blast orientation ([2]; BLAST alignment orientation): Plus/Plus; blast chr ([2]; chromosome with the longest result for BLAST analysis of the full contig): chr21; Transposon orientation ([2]; compared with the human reference genome): direct; Distance from insertion ([2]; distance between insertion and the transposon (0 if they overlap)): 0; Location relative to insertion ([2]; location of the transposon relative to the insertion on the contig): intersect
20 (nucleic acid, listed as Homo sapiens) TTCTTCTCACGGAGTGAAACTTTTCCTTTGATTGAGCAGTTTCGAAACTCTCTTTTTGTAAAATCTGCAAGTGAACATTTGGAGTGCTTTGTGGCCTATGATAGAAAAGGAAATATTTTCACTTAAAATCTAGACAGAAGCAATCTGAGAAACTTCTTTGTGATGTTTGTATTCATCTTACATAGTTAAACCTTTCTTTTGATTGAGCAGTTTTGAAACTCTCTTTTTGTCGAATCTGTAAGAGGACATTTGGAGTGCTTTCAGGCCTATGGTGAAAAAGGAAGTATCTTCTCATGAAAACTAGACAGAAGAATTCAGACAAACTTCTTTGTGATGTGTGCATTTATCTCACAGACTTGAACCTTTCTTTTGATTGAGCAGTTTGAAACACTCTTTTTGTAGAATCTGCAAGTGGACATTTGGAGCACGTGGAGGCCTATAGTGGAAATGGAAATGTCTTCACACTAAAAACTAGACAGAAGAATTCTGAGAAACTTCTTTGTGATCTTTGCATTCATCTCACAGAGTTGAACCTTTCTTTTCATTGAGCAGTTTGAAAACACTCTTTTTGTAGAATCGGCAAGTGGACATTTGGAACGCATTGCAGACTATGATGGAAAAGGAAATATCTCCA | AK311573 | Chr21 | 10752909 | 24 | –
22 (nucleic acid, listed as Homo sapiens) CAGCGCAAGTAATATATCCTGGAATTGGAAGCAGAATGGGAACTATGGACTCAGTGAAGATTGTTCTGGACATTATTTGATTCTTCTTTCTCGCTGCCAATTGGATACTTTTTTTTTTTTTTGAGACAGAGTCT | TBL1XR1 | Chr3 | 176878250 | 1 | –
4 (nucleic acid, listed as Homo sapiens, misc_difference 287 a, c, t, g, unknown or other) TGATATGGTTTGGCTGTGTCCCCACCTAAATCTCATCTTGAATTGTAGTTCCCATAATCCCCATGTGTCATGGGAGGGACCCAGTGGGAGGTAATTTAATCCTGGGGGCAGTTACCCTCCTGCTATGTGTGTGTGTGTGTGTGTGTTCTCACGAGATCTGATGGTTTTATAAGGGGCTTTTCCCCCTTCGCTCGGCACTTCTCCTTCCTGCCGCCATGTGAAGAAGGACGTGTTTGCTTCCCCTTCCGCCATGATTGTAAGTTTCCTGAGGCCTCCCCAGCCATGCNGAACTGTGAGTCAATTAAACCTCTTTCCTTTATAAATTACCCAGTCTCGGGTGTGTCTTTATTAGCAGCGTGAGAACGGACTAATACA | PI4K2B | Chr4 | – | 2 | –
21 (nucleic acid, listed as Homo sapiens) CAGCGCAAGTAATATATCCTGGAATTGGAAGCAGAATGGGAACTATGGACTCAGTGAAGATTGTTCTGGACATTATTTGATTCTTCTTTCTCGCTGCCAATTGGATACTTTTTTTTTTTTTTTGAGACAGAGTCT | TBL1XR1 | Chr3 | 176878250 | 1 | –
13 (nucleic acid, listed as Homo sapiens) TATCGAAAATTCACCCCCGATATTCACGTAGGTTCTTTTCTATTTTCCCTAAGCGTCGGCAGGTTTGAGAAATAAAGGGACAGAGTACAAAAGAGAGAAATTTTAAAGCTGGGCGTCCGGGGGAGACATCACATGTTGGTAGGTTCCATGATGCCCCACAAGCCGTAAAAACCAGCAAGTTTTTATTAGTGATTTTCAAAAGGGGAGGGAGTGTACGAATAGGTGTGGGTCACAGAGATCACGTGCTTCACAAGGTAATAGAATATCACAAGGCAAATGGAGGCAGGGCGAGATCACAGGACCACAGGACCGGGGTGAAATTAAAATTGCTAATGAAGTTTTGGGCACCATTGTCATTGATAACATCTTATCAGGAGACAGGGTTTGAGAGACAACCGGTCTGACCAAAATTTATTAGGTGGGAATTTCCTCGTCCTAATAAGCCTGGGAGTGCTATGGGAGACTGGGGCTTATTTCATCCCGTAGAGGCAACCATAAAAGACAGGCCCAAGCGGCCATTTAGAGCCTCCCAGGACATTCTCTTTCTCAGGGTGTTCCTTGCTGAGAAAAAGAATTCAGATATTTCTCCATTTGCTTTTGAAAGAAGAGAAATATGGCTCTGTTCCCGGCTCACGGCGCAGATTTAAGGTTATCTCCTTTTCCCTGAACAATTGCTGTTATCCTGTTCTTTTTTCAAGGTGCCCAGATTTCATATTGTTCAAACACACATGCTTACAATTTGTGCAGTTAAGCAATATCACAGGGTCCTGAGGGACATACATCCTCCTCAGCTGACAGGATTAAGAGATTAAAGTAAAGACAGGCATAGGAAATCACAAGGGTATTGATTGGGGAAGTGATAAGTGTCCATGAAATCTTCACAATTTATGTTTAGAGATTGCAGTAAAGACAGGCATAAGAAATTATAAAAGTATTAATTTGGGGAACTAATAAATGTCCATGAAATCTTCACAATCCACGTTCTTCTGCCATGGCTTCAGCCGGTCCCTCCGTTCGGGGTCCCTGACTTCCCGCAACA | none | Chr14/ and Chr3 | – | 4 | –

From US20250241939A1, “NUCLEIC ACID-BASED DELIVERY SYSTEMS AND USES THEREOF” (Kodikaz Therapeutic Solutions, Inc., priority 2022, published 2025)
